The results in this text go back to patent publication US20150258192A1, “COMPOSITIONS AND METHODS FOR PREVENTING OR TREATING CHRONIC LUNG ALLOGRAFT DYSFUNCTION (CLAD) AND IDIOPATHIC PULMONARY FIBROSIS (IPF)” (priority 2014, published 2015).

Holding throughout (assay): Kinase Profiling Assay
Holding throughout (format): biochemical
Holding throughout (details): peptide 100 μM

One assay concerns the target T1, Rsk3(h) (Homo sapiens, UniProt Q15349).
T1 construct: purchased Millipore
In outline:
(§1)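 Radiometric filter-binding format: cationic substrate takes up labeled phosphate from ATP unless the inhibitor peptide blocks the kinase. Substrate bound to an anionic filter, scintillation-counted, normalized to 100% activity control. Duplicates; part of a 266-kinase selectivity panel for MK2 peptides.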

The next assay addresses T2, NEK3(h) (Homo sapiens, UniProt P51956).
T2 construct: purchased Millipore
T2 sequence (P51956 1-506): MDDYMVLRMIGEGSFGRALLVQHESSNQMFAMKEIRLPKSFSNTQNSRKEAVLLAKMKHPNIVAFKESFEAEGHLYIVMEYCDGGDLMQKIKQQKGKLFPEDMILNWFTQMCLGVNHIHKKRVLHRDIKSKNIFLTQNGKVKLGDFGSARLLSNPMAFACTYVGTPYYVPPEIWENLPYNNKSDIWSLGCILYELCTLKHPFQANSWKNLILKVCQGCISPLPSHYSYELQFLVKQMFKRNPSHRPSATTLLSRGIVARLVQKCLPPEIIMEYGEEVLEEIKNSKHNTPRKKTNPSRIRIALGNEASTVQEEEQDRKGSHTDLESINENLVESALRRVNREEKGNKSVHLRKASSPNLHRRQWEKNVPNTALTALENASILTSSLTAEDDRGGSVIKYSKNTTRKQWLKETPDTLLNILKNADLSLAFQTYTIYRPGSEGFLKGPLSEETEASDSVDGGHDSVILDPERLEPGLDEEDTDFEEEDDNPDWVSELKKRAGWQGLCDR
In outline:
as §1

For another assay, the target named is T3, Tie2(h) (Homo sapiens, UniProt Q02763).
T3 construct: purchased Millipore
In outline: as §1

A further assay has as its target cKit(V654A)(h) (Homo sapiens, UniProt P10721, V654A). In outline: as §1
The next assay deals with PKBγ(h) (Homo sapiens, UniProt Q9Y243). The essentials:
as §1

The next assay has as its target CHK2(I157T)(h) (Homo sapiens, UniProt O96017, I157T). In outline:
as §1

For a further assay, the target named is T4, SAPK2a(h) (Homo sapiens, UniProt Q16539).
T4 construct: purchased Millipore
In outline: as §1

A further assay has as its target T5, MKK6(h) (Homo sapiens, UniProt P52564).
T5 construct: purchased Millipore
T5 sequence (P52564 1-334): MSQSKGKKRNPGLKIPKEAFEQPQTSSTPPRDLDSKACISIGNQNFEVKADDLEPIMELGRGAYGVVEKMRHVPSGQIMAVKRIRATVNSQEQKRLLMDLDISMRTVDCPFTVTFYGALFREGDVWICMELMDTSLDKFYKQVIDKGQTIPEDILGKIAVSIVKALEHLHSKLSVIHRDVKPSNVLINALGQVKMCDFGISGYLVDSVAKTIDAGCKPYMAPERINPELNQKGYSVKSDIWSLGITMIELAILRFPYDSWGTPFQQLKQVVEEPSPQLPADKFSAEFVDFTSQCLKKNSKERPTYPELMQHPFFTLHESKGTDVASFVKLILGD
In outline:
as §1

The next assay concerns the target CK1δ(h) (Homo sapiens, UniProt P48730). The essentials:
as §1

Another assay has as its target FGFR4(h) (Homo sapiens, UniProt P22455). In outline: as §1
The target in the next assay is T6, MAPKAP-K2(h) (Homo sapiens, UniProt P49137).
T6 construct: purchased Millipore
The essentials: as §1

Another assay deals with CDK1/cyclinB(h) (Homo sapiens, UniProt P06493). In outline: as §1
A further assay deals with T7, ZAP-70(h) (Homo sapiens, UniProt P43403).
T7 sequence (P43403 1-619): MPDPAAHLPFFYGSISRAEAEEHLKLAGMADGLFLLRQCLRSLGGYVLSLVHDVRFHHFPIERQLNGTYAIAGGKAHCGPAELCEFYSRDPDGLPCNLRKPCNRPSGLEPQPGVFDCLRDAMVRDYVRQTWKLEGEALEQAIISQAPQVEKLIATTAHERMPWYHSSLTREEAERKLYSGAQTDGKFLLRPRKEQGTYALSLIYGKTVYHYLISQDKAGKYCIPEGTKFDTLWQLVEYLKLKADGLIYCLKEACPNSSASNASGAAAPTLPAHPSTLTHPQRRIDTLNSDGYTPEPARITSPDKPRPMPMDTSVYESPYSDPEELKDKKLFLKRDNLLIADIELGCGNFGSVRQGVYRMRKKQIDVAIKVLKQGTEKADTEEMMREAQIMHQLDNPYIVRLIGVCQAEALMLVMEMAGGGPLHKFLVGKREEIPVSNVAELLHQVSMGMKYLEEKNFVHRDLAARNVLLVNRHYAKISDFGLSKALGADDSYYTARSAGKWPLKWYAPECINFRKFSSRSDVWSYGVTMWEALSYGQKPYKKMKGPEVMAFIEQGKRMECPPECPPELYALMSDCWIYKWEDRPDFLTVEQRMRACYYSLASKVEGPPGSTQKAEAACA
The essentials: as §1

No end group written: not given here.

Sequence of CDK1/cyclinB(h) (P06493 whole entry): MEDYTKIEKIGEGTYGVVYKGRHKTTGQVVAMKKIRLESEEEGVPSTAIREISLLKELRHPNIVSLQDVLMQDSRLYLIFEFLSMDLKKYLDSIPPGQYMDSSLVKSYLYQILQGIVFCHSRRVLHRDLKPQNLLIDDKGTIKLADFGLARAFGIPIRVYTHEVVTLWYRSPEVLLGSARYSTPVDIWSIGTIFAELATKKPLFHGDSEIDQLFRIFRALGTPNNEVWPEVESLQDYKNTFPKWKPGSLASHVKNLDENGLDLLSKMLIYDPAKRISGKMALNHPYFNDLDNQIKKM
Sequence of CDK1/cyclinB(h) (P14635 whole entry partner): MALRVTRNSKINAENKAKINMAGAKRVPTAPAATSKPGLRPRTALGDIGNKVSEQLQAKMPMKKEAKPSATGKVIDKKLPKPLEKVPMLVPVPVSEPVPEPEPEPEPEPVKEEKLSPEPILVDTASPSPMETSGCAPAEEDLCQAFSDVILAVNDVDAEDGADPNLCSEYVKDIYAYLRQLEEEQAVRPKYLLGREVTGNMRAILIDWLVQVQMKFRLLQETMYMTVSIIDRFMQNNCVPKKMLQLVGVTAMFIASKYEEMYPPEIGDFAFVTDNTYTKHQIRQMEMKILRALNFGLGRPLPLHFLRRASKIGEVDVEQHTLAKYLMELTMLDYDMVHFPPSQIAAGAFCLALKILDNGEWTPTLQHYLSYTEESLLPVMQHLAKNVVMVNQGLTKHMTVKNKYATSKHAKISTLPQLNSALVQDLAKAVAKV
Sequence of CK1δ(h) (P48730 whole entry): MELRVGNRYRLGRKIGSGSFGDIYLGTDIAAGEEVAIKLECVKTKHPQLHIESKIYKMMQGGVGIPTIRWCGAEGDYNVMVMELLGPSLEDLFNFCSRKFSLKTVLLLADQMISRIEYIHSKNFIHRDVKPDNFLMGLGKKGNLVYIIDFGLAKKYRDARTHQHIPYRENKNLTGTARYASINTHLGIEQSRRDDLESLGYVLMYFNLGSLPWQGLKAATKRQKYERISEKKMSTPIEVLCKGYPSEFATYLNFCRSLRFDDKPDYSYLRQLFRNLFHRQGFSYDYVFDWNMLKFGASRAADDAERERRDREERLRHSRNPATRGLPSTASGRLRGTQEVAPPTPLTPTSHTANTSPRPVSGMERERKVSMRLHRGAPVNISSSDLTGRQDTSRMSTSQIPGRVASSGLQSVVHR
T4 sequence (Q16539 whole entry): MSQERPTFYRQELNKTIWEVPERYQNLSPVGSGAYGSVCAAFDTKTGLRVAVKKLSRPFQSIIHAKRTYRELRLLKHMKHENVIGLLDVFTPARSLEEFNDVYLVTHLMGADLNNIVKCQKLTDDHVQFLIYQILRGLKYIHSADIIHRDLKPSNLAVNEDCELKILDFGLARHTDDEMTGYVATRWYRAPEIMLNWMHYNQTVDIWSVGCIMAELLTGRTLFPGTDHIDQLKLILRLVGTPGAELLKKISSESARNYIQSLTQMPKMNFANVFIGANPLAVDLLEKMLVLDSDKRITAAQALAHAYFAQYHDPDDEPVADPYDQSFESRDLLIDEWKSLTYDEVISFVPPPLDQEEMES
T6 sequence (P49137 whole entry): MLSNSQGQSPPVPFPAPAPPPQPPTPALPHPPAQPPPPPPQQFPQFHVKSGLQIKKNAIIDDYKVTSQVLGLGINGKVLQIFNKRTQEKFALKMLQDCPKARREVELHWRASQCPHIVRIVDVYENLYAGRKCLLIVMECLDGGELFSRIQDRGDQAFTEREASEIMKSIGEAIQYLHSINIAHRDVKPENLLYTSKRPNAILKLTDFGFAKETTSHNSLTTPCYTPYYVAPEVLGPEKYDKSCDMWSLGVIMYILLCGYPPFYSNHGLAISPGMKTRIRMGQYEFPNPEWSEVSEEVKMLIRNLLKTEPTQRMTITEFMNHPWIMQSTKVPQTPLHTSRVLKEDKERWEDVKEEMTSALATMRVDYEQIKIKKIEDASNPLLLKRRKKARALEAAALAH
Sequence of CHK2(I157T)(h) (O96017 whole entry I157T): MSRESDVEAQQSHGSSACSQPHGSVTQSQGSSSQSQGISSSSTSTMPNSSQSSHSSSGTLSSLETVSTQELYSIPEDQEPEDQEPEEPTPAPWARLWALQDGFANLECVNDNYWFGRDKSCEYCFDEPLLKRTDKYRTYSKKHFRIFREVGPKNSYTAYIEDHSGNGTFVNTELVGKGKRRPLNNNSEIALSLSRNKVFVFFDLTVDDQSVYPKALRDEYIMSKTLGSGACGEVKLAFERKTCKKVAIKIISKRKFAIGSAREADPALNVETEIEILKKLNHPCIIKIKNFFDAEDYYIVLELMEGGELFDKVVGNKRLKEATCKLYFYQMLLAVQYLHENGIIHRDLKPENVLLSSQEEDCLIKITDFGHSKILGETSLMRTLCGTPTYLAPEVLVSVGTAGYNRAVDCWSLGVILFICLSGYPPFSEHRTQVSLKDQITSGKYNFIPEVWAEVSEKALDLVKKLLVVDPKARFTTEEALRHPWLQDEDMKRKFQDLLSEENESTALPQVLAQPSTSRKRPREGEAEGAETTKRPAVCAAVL
T3 sequence (Q02763 23-1124): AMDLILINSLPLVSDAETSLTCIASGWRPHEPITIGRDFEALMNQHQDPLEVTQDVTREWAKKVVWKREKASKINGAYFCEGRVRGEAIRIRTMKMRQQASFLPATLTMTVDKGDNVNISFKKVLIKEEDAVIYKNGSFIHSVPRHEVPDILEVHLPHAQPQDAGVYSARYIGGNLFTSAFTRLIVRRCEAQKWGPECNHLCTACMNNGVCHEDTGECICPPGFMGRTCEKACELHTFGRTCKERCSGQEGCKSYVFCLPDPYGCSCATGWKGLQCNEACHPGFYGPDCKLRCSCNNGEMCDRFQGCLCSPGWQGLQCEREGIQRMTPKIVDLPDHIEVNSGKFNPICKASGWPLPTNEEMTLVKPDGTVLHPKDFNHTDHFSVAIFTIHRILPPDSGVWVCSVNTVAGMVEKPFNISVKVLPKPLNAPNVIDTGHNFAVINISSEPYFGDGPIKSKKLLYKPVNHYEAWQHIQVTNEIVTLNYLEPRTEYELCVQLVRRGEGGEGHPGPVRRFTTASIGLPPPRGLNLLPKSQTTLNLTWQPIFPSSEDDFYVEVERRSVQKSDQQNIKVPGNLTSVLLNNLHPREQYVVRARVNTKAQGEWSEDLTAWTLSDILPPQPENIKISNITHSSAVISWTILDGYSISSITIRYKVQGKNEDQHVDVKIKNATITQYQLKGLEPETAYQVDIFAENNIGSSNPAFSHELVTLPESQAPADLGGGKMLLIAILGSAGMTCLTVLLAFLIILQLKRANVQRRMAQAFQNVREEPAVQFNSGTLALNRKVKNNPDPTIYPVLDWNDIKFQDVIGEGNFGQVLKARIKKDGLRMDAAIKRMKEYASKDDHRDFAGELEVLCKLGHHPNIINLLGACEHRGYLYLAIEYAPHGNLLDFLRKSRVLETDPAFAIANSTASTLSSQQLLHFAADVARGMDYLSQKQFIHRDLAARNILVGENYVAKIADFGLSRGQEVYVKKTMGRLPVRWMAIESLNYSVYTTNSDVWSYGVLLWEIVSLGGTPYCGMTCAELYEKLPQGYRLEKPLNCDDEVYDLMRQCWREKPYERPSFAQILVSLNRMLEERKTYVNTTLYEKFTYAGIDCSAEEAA
T1 sequence (Q15349 whole entry): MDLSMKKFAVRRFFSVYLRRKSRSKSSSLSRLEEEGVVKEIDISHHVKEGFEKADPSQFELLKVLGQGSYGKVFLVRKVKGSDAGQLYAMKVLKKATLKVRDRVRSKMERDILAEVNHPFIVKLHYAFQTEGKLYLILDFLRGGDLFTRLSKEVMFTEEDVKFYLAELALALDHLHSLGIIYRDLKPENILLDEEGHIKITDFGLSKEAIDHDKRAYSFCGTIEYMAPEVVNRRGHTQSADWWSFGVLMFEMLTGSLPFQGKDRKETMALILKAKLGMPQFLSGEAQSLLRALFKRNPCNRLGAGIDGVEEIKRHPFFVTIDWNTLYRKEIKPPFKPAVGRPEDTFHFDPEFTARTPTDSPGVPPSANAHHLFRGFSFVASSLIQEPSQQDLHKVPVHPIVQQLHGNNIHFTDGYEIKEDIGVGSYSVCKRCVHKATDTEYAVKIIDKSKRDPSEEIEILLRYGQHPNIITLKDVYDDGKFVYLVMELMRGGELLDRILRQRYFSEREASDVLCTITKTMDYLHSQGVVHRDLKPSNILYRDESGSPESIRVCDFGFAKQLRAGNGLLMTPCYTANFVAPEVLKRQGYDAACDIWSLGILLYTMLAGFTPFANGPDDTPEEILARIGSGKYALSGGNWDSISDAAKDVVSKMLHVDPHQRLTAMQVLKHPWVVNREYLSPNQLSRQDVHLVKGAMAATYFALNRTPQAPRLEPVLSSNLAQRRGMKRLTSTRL
Sequence of PKBγ(h) (Q9Y243 whole entry): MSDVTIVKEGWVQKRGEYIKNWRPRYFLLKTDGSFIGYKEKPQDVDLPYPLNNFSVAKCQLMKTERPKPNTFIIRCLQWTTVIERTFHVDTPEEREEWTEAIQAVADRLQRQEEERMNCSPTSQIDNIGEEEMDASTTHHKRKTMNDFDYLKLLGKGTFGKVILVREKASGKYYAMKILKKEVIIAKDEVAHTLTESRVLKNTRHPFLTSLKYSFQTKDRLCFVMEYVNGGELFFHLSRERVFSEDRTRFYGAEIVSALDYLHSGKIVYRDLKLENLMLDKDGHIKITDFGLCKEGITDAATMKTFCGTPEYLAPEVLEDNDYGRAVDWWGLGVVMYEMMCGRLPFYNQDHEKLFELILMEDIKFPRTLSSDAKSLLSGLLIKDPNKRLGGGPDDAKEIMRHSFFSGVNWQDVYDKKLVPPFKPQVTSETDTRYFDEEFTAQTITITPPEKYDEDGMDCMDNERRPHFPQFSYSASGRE

For KAFAKLAARLYRKALARQLGVAA [MMI-0400], the “% activity” value worked out at 71% with Rsk3(h); 85% with NEK3(h); 21% with Tie2(h); 150% with cKit(V654A)(h); 41% with PKBγ(h); 41% with CHK2(I157T)(h). Also, the “% activity” value is listed as 85% with SAPK2a(h); 44% with MKK6(h); 93% with CK1δ(h); 19% with FGFR4(h); 5% in the assay with MAPKAP-K2(h); 74% in the assay with CDK1/cyclinB(h). Also, in the assay with ZAP-70(h), the “% activity” value was determined as 33%.
Take FAKLAARLYRKALARQLGVAA [MMI-0300]: the “% activity” value in the assay with Rsk3(h) is recorded as 76%; with NEK3(h), 92%; with Tie2(h) it was 26%; in the assay with cKit(V654A)(h), 134%; in the assay with PKBγ(h), 20%; with CHK2(I157T)(h) it was 43%. Further, the “% activity” value came out at 90% in the assay with SAPK2a(h); 48% with MKK6(h); 92% with CK1δ(h); 28% with FGFR4(h); 5% with MAPKAP-K2(h); 73% with CDK1/cyclinB(h). The “% activity” value in the assay with ZAP-70(h) is reported as 75%.
Turning to YARAAARQARAKALARQLGVAA [MMI-0100], the “% activity” value at NEK3(h) is reported as 100%; at Tie2(h), 28%; on cKit(V654A)(h) it was 69%; at CHK2(I157T)(h) it was 97%; on MAPKAP-K2(h), 19%; at ZAP-70(h) it was 79%.
On to “HRRIKAWLKKIKALARQLGVAA (Mammal) [MMI-0500]”, for which the “% activity” value with Rsk3(h) stood at 23%; in the assay with NEK3(h), 20%; with Tie2(h) it was 22%; in the assay with cKit(V654A)(h), 223%; with PKBγ(h) it was 20%; in the assay with CHK2(I157T)(h) it was 3%. The “% activity” value is on record as 52% with SAPK2a(h); 18% with MKK6(h); 78% with CK1δ(h); 3% with FGFR4(h); 9% with MAPKAP-K2(h); 57% with CDK1/cyclinB(h). Moreover, the “% activity” value with ZAP-70(h) is on record as 1%.
With “YARAAARQARAKALNRQLGVA (Mammal) [MMI-0200]”, the “% activity” value was determined as 100% with NEK3(h); 53% in the assay with Tie2(h); 85% with CHK2(I157T)(h); 98% with MKK6(h); 92% with CK1δ(h); 75% in the assay with FGFR4(h). Besides, the “% activity” value with MAPKAP-K2(h) is given as 35%; with ZAP-70(h) it was 58%.
